The values that follow come from PMC3167601.

As a reminder, the Kd is the free concentration of one partner at which half of the binding sites on the other are occupied at equilibrium, for simple one-to-one binding. Low values mean tighter binding, high ones weaker binding.

Common to all, as to assay: fluorescence anisotropy
One series concerns the target T1, IRF-7 DBD wild type (mouse, UniProt P70434 1-134).
T1 sequence: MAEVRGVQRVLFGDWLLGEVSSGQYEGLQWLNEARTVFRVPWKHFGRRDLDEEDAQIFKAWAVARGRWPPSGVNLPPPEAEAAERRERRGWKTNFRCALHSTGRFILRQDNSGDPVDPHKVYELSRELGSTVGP

For the next series, the target named is T2, IRF-7 DBD H44A (mouse, UniProt P70434 1-134, H44A).
T2 sequence: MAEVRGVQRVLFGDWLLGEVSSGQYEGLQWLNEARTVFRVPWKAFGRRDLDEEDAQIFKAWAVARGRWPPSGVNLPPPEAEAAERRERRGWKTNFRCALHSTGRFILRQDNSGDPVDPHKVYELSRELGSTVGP

Another series concerns the target T3, IRF-3 DBD wild type (human, UniProt Q14653 1-113).
T3 sequence: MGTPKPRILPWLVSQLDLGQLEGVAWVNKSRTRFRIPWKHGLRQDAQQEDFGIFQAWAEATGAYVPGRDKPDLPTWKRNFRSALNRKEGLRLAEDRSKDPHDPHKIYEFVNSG

Another series addresses T4, IRF-3 DBD H40A (human, UniProt Q14653 1-113, H40A).
T4 sequence: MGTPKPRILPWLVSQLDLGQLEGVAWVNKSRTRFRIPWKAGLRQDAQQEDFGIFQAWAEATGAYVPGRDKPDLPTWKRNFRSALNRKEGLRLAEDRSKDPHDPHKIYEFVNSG

B1: PRDI 15-mer duplex (dsDNA)
DNA 1: GAGAAGTGAAAGTGG
DNA 2: CCACTTTCACTTCTC
B1: the Kd with IRF-7 DBD wild type was 630 nM; with IRF-7 DBD H44A, 532 nM; with IRF-3 DBD wild type, 486 nM; in the series with IRF-3 DBD H40A, 1710 nM.
